B1: Transcription factor HFR1 (Arabidopsis thaliana (Mouse-ear cress)), Q9FE22 (parent)
chain: MSNNQAFMELGWRNDVGSLAVKDQGMMSERARSDEDRLINGLKWGYGYFDHDQTDNYLQIVPEIHKEVENAKEDLLVVVPDEHSETDDHHHIKDFSERSDHRFYLRNKHENPKKRRIQVLSSDDESEEFTREVPSVTRKGSKRRRRDEKMSNKMRKLQQLVPNCHKTDKVSVLDKTIEYMKNLQLQLQMMSTVGVNPYFLPATLGFGMHNHMLTAMASAHGLNPANHMMPSPLIPALNWPLPPFTNISFPHSSSQSLFLTTSSPASSPQSLHGLVPYFPSFLDFSSHAMRRL
partner: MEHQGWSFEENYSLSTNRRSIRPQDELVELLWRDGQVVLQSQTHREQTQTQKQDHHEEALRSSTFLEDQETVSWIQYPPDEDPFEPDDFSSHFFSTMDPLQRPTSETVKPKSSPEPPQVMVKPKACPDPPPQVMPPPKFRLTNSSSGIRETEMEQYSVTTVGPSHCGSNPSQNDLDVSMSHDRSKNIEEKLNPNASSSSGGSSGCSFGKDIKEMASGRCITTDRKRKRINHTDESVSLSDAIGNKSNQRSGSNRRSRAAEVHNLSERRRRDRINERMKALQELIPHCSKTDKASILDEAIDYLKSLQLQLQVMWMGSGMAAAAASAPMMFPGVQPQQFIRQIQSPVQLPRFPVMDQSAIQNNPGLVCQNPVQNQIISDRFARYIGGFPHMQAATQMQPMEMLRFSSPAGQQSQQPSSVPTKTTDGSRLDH
B2: Transcription factor HFR1 (Arabidopsis thaliana (Mouse-ear cress)), Q9FE22 (parent)
chain: B1 chain
partner: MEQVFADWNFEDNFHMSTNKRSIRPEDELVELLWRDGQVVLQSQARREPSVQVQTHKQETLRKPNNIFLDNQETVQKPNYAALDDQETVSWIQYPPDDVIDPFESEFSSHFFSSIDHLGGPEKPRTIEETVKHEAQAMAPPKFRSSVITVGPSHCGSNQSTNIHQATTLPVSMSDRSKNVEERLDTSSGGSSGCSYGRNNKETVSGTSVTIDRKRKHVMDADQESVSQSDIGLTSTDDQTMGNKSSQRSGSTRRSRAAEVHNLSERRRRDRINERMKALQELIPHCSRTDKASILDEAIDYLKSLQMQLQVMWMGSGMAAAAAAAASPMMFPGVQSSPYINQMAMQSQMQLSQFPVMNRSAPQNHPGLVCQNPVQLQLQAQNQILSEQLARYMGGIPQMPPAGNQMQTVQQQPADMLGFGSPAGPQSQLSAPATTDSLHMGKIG

Four variants from IntAct's records for PubMed 19851283 can be followed below.

One experiment covers variants of B1. The conditions noted are these: with pif4_arath PIF4, Q8W2F3.
Turning to V172D, the “effect of a mutation on the interaction” value was “disrupting interaction”.

On to L173E, for which the “effect of a mutation on the interaction” value is recorded as “disrupting interaction”.

A further experiment covers variants of B2. The settings on record: with pif5_arath PIF5, Q84LH8.
On to L173E, for which the “effect of a mutation on the interaction” value is reported as “disrupting interaction”. On the same count and under the same terms, for V172D the value was “disrupting interaction”.
